Assay results published in patent publication US20180298083A1 (US Dept. of Health and Human Services, published 2018).
Where two headings read alike, the source gives them in different places.

Legend:
CAAN.A2 [1] = target: CAAN.A2 (HIV-1); test: cell-based or functional assay
CAAN.A2 [2] = target: CAAN.A2 (HIV-1); test: cell-based or functional assay; remark: listed apart in the source
CAAN.A2 [3] = target: CAAN.A2 (HIV-1); test: cell-based or functional assay; remark: listed apart in the source
monomeric gp120^JRCSF = target: T1, monomeric gp120^JRCSF (HIV-1 strain JRCSF, UniProt P20871 32-503); test: gp120 capture ELISA
T1 construct: domain: gp120

[4] = target: T2, SSB, Sjogren syndrome antigen B (Homo sapiens (Human), UniProt P05455 1-408); test: Luminex AtheNA Multi-Lyte ANA test
T2 construct: also called SS-B/La
T2 sequence: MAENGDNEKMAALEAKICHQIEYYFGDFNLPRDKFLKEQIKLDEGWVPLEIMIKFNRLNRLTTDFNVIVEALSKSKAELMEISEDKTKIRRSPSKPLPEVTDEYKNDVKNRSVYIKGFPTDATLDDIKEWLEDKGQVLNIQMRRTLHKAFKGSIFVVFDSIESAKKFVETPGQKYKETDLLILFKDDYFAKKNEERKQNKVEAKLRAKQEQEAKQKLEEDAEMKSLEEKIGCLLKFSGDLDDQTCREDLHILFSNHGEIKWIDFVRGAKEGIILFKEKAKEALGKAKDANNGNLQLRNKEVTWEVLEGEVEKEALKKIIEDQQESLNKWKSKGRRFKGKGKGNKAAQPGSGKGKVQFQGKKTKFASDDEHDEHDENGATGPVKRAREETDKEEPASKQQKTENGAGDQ

Histone = test: Luminex AtheNA Multi-Lyte ANA test
[5] = target: T3, SSA, Sjogren's syndrome antigen A; test: Luminex AtheNA Multi-Lyte ANA test
T3 construct: also called SSA/Ro

[6] = target: T2, SSB, Sjogren syndrome antigen B; test: Luminex AtheNA Multi-Lyte ANA test; remark: listed apart in the source
Sm, Smith antigen = test: Luminex AtheNA Multi-Lyte ANA test
RNP, ribonucleoprotein = test: Luminex AtheNA Multi-Lyte ANA test
Jo1 antigen = target: T4, Jo1 antigen; test: Luminex AtheNA Multi-Lyte ANA test
T4 construct: also called Jol

CentrB, centromere B = test: Luminex AtheNA Multi-Lyte ANA test
CentrB, centromere B, sequence (P07199 2-599): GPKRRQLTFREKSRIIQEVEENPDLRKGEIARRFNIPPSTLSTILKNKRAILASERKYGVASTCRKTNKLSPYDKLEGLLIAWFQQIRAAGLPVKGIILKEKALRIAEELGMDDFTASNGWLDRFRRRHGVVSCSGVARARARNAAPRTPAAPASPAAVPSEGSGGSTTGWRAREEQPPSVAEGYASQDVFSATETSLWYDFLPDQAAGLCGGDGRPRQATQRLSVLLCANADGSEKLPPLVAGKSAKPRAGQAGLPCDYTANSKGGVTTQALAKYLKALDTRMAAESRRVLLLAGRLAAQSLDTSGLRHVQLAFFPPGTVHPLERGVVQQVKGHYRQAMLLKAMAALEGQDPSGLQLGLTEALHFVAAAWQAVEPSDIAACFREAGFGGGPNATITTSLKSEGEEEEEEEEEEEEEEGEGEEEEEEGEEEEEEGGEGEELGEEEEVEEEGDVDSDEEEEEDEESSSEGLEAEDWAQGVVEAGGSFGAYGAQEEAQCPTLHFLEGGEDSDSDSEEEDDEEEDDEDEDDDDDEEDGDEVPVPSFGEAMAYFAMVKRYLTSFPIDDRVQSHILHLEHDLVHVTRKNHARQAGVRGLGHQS

B1: VRC01 (antibody, V domains shown)
VH: QVQLVQSGGQMKKPGESMRISCRASGYEFIDCTLNWIRLAPGKRPEWMGWLKPRGGAVNYARPLQGRVTMTRDVYSDTAFLELRSLTVDDTAVYFCTRGKNCDYNWDFEHWGRGTPVIVSS
VL: EIVLTQSPGTLSLSPGETAIISCRTSQYGSLAWYQQRPGQAPRLVIYSGSTRAAGIPDRFSGSRWGPDYNLTISNLESGDFGVYYCQQYEFFGQGTKVQVDI
neutralisation IC50 (CAAN.A2 [1]): 1.06 µg/mL
neutralisation IC50 (CAAN.A2 [2]): 1.06 µg/mL
neutralisation IC50 (CAAN.A2 [3]): 1.06 µg/mL

B2: VRC-PG04 (antibody, V domains shown)
VH: QVQLVQSGSGVKKPGASVRVSCWTSEDIFERTELIHWVRQAPGQGLEWIGWVKTVTGAVNFGSPDFRQRVSLTRDRDLFTAHMDIRGLTQGDTATYFCARQKFYTGGQGWYFDLWGRGTLIVVSS
VL: EIVLTQSPGTLSLSPGETASLSCTAASYGHMTWYQKKPGQPPKLLIFATSKRASGIPDRFSGSQFGKQYTLTITRMEPEDFARYYCQQLEFFGQGTRLEIR
Binding affinity relative to WT (%) (monomeric gp120^JRCSF): 100%

B3: N6 antibody (antibody, V domains shown)
VH: RAHLVQSGTAMKKPGASVRVSCQTSGYTFTAHILFWFRQAPGRGLEWVGWIKPQYGAVNFGGGFRDRVTLTRDVYREIAYMDIRGLKPDDTAVYYCARDRSYGDSSWALDAWGQGTTVVVSA
VL: YIHVTQSPSSLSVSIGDRVTINCQTSQGVGSDLHWYQHKPGRAPKLLIHHTSSVEDGVPSRFSGSGFHTSFNLTISDLQADDIATYYCQVLQFFGRGSRLHIK
notes: also called N6 mAb
binding result [4]: no binding (tested: 50 µg/ml)
Luminex reactivity (unit not given) (Histone): 50.6
Luminex reactivity (unit not given) [5]: 36.4
Luminex reactivity (unit not given) [6]: 100
Luminex reactivity (unit not given) (Sm, Smith antigen): 5.2
Luminex reactivity (unit not given) (RNP, ribonucleoprotein): 16.8
Luminex reactivity (unit not given) (Jo1 antigen): 56.4
Luminex reactivity (unit not given) (CentrB, centromere B): 22
